Data as given in IntAct's records for PubMed 19478074.

B1: Transforming growth factor-beta-induced protein ig-h3 (Homo sapiens), Q15582 (parent)
chain: MALFVRLLALALALALGPAATLAGPAKSPYQLVLQHSRLRGRQHGPNVCAVQKVIGTNRKYFTNCKQWYQRKICGKSTVISYECCPGYEKVPGEKGCPAALPLSNLYETLGVVGSTTTQLYTDRTEKLRPEMEGPGSFTIFAPSNEAWASLPAEVLDSLVSNVNIELLNALRYHMVGRRVLTDELKHGMTLTSMYQNSNIQIHHYPNGIVTVNCARLLKADHHATNGVVHLIDKVISTITNNIQQIIEIEDTFETLRAAVAASGLNTMLEGNGQYTLLAPTNEAFEKIPSETLNRILGDPEALRDLLNNHILKSAMCAEAIVAGLSVETLEGTTLEVGCSGDMLTINGKAIISNKDILATNGVIHYIDELLIPDSAKTLFELAAESDVSTAIDLFRQAGLGNHLSGSERLTLLAPLNSVFKDGTPPIDAHTRNLLRNHIIKDQLASKYLYHGQTLETLGGKKLRVFVYRNSLCIENSCIAAHDKRGRYGTLFTMDRVLTPPMGTVMDVLKGDNRFSMLVAAIQSAGLTETLNREGVYTVFAPTNEAFRALPPRERSRLLGDAKELANILKYHIGDEILVSGGIGALVRLKSLQGDKLEVSLKNNVVSVNKEPVAEPDIMATNGVVHVITNVLQPPANRPQERGDELADSALEIFKQASAFSRASQRSVRLAPVYQKLLERMKH
partner: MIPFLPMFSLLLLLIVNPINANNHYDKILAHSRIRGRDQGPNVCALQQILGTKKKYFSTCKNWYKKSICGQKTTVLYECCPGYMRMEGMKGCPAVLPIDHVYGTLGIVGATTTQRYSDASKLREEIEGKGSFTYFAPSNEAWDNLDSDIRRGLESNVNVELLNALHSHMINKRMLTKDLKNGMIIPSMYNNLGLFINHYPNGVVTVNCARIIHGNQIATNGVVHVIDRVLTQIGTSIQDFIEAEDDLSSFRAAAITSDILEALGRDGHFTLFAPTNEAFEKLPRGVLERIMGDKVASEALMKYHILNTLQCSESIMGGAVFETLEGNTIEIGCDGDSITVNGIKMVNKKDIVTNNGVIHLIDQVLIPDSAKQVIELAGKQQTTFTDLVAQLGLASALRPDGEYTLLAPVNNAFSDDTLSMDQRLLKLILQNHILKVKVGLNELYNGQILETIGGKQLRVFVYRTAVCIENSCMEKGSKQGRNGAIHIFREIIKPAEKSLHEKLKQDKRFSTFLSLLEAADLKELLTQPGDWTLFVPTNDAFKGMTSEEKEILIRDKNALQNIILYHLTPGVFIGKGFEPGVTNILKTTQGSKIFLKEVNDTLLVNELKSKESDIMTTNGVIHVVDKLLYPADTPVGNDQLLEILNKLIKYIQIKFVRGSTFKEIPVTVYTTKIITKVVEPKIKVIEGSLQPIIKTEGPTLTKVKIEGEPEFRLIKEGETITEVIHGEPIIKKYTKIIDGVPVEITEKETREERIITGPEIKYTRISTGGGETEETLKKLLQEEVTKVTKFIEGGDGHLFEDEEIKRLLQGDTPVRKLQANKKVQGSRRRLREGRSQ

Variants of: B1
Conditions: with postn_human POSTN

Variant | effect of a mutation on the interaction
R124H | disrupting interaction strength
